Our source for the Kd values is patent US20230357395A1.

The assay has as its target NKp30 (species and construct not stated) (UniProt O14931). Kind of assay: ELISA. Particulars: ligand. Background: An ELISA detects its analyte on a solid surface through an enzyme-linked reagent.

Sequence of B7-H6 (Q68D85 25-262): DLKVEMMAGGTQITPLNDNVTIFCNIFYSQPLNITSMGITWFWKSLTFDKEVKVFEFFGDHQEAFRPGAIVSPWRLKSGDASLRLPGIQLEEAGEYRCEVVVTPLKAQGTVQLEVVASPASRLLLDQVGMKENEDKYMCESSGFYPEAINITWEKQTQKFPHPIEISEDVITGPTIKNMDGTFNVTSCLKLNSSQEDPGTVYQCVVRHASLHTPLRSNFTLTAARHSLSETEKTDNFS
Sequence of NKp30 (species and construct not stated) (O14931 19-135): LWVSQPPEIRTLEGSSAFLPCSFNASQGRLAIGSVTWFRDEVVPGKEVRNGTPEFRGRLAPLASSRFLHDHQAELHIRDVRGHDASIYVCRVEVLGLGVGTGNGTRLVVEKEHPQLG

By Kd is commonly meant the free concentration of one partner at which half of the binding sites on the other are occupied at equilibrium, for simple one-to-one binding. B7-H6 (from UniProt Q68D85 25-262): the Kd was 6.56 nM.
